The source of these data is paper PMC5380474 (Molecular microbiology, 2017).

Where two headings read alike, the source gives them in different places.

Assay in all cases: cross-linking
Data set [1] deals with the molecule itself.
Data set [2] deals with the molecule itself. The source holds these as a separate data set.
Data set [3] concerns the molecule itself. The source holds these as a separate data set.

B1: FLAG-tagged FlhA D170C/R185C (natural protein)
chain: MANLVAMLRLPSNLKSTQWQILAGPILILLILSMMVLPLPAFILDLLFTFNIALSIMVLLVAMFTQRTLDFAAFPTILLFTTLLRLALNVASTRIILMEGHTGAAAAGKVVEAFGHFLVGGNFAIGIVVFIILVIINFMVITKGAGRIAEVGARFVLDGMPGKQMAIDACLNAGLIGEDEAKKRCSEVTQEADFYGSMDGASKFVRGDAIAGILIMVINVVGGLLVGVLQHGMSIGSAAESYTLLTIGDGLVAQIPALVISTAAGVIVTRVSTDQDVGEQMVGQLFSNPRVMLLAAAVLGLLGMVPGMPNLVFLLFTAALLGLAWWLRGREEKAPEEPQPVKMPENNSVVEATWNDVQLEDSLGMEVGYRLIPMVDFQQDGELLGRIRSIRKKFAQDMGFLPPVVHIRDNMDLQPARYRILMKGVEIGSGDAYPGRWLAINPGTAAGTLPGEKTVDPAFGLDAIWIESALKEQAQIQGFTVVEASTVVATHLNHLIGQFSAELFGRQEAQQLLDRVSQEMPKLTEDLVPGVVTLTTLHKVLQNLLAEKVPIRDMRTILETLAEHAPLQSDPHELTAVVRVALGRAITQQWFPGNEEVQVIGLDTALERLLLQALQGGGGLEPGLADRLLAQTQEALSRQEMLGAPPVLLVNHALRPLLSRFLRRSLPQLVVLSNLELSDNRHIRMTATIGGK
For the protein B1, the stoichiometry N (in general, a count of units in the complex or per binding partner) in data set [1] was 7; in data set [2], 5; in data set [3], 9.
